These results are taken from patent publication US20020164707A1, “Calcitonin gene related peptide receptor” (Human Genome Sciences, Inc., priority 1994, published 2002).

No end group written: not given here.

Test [1] deals with T1, CGRP receptor (Homo sapiens, UniProt O60894+Q16602).
T1 construct: expressed in transfected cells; host or cells: Human Kidney 293 cells (transient)
As to the kind of experiment: [125I]CGRP binding to membranes from 293 cells (clone 22) stably transformed with CGRP receptor cDNA. The conditions noted are these: for rank order of potency in competition against [125I]CGRP binding: two to three independent experiments in duplicate. The protocol:
FIG. 8. Saturation binding. […] Equilibrium binding was measured at 25° C. for 60 min. […] Data are from one experiment representative of three independent experiments done in duplicate. (B) Scatchard plot of [^125I] CGRP binding.
FIG. 9. Competition binding profiles. Competition curves for representative CGRP analogs against [^125I]CGRP binding to membranes prepared from 293 cells (clone 22 cells) stably transformed with the CGRP receptor cDNA. Each curve is representative of two to three independent experiments, each carried out in duplicate.

Test [2] addresses human CGRP receptor polypeptide (recombinant, expressed in 293 cells from construct pCDNHCGRPr) (human) (UniProt Q16602). As to the kind of experiment: cell-based or functional assay.

T1 sequence (Q16602 23-461): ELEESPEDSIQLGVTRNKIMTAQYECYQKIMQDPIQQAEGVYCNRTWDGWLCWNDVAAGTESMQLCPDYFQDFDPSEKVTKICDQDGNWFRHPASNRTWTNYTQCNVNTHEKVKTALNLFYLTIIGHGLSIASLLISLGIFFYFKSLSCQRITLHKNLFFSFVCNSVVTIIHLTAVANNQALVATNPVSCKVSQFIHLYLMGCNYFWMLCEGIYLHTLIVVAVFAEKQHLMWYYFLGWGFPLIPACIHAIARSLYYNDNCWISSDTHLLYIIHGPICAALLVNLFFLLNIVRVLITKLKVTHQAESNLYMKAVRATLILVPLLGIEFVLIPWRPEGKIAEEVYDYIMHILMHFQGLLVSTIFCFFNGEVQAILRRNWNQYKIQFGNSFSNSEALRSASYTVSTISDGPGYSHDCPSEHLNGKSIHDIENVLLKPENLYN
T1 sequence (O60894 27-148): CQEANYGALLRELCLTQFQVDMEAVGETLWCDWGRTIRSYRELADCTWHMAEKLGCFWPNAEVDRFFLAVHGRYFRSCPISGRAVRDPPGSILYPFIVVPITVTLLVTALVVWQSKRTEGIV
Chain of human CGRP receptor polypeptide (recombinant, expressed in 293 cells from construct pCDNHCGRPr) (human) (Q16602 22-461): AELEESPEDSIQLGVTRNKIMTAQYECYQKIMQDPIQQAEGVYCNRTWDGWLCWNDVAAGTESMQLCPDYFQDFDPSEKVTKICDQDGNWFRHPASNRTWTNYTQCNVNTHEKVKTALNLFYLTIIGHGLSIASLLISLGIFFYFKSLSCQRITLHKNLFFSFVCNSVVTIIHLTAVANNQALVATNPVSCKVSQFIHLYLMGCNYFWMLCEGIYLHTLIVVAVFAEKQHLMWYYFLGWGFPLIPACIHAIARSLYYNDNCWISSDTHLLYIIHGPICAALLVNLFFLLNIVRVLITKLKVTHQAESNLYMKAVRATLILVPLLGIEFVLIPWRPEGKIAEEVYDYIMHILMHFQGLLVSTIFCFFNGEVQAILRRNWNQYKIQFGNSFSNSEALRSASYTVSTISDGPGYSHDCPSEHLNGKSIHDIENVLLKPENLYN

Take `CC(C)C[C@H](NC(=O)CNC(=O)[C@H](C)NC(=O)[C@H](CC(C)C)NC(=O)[C@H](CCCNC(=N)N)NC(=O)[C@H](Cc1cnc(I)[nH]1)NC(=O)[C@@H](NC(=O)[C@@H](NC(=O)[C@@H]1CSSC[C@H](NC(=O)[C@H](C)N)C(=O)N[C@@H](CC(=O)O)C(=O)N[C@@H]([C@@H](C)O)C(=O)N[C@@H](C)C(=O)N[C@@H]([C@@H](C)O)C(=O)N1)C(C)C)[C@@H](C)O)C(=O)N[C@@H](CC(C)C)C(=O)N[C@@H](CO)C(=O)N[C@@H](CCCNC(=N)N)C(=O)N[C@@H](CO)C(=O)NCC(=O)NCC(=O)N[C@H](C(=O)N[C@H](C(=O)N[C@@H](CCCCN)C(=O)N[C@@H](CC(N)=O)C(=O)N[C@@H](CC(N)=O)C(=O)N[C@@H](Cc1ccccc1)C(=O)N[C@H](C(=O)N1CCC[C@H]1C(=O)N[C@H](C(=O)N[C@@H](CC(N)=O)C(=O)N[C@H](C(=O)NCC(=O)N[C@@H](CO)C(=O)N[C@@H](CCCCN)C(=O)N[C@@H](C)C(=O)N[C@@H](Cc1ccccc1)C(N)=O)C(C)C)[C@@H](C)O)C(C)C)C(C)C)C(C)C` [[^125I] CGRP]: the “Bmax (Scatchard plot, saturation binding)” value in test [1] (equilibrium binding at 25° C. for 60 min) was 89 fmol/mg protein. As for “human CGRP (8-37) (from UniProt P06881 90-119) (peptide)”, the pA2 against CGRP-mediated cAMP accumulation in stably transformed 293 cells, 100 nM CGRP (8-37) in test [2] turned out to be 7.8 pA2. For the compound “human amylin: islet amyloid polypeptide (IAPP or amylin), human (KCNTATCATQRLANFLVHSSNNFGAILSSTNVGSNTY)”, the “rank order of potency in competition against [125I]CGRP binding” value (shortened to “rank order of potency in competition”) in test [1] is on record as “>>>>”. Turning to “human calcitonin (hCT): human calcitonin”, in test [1], the “rank order of potency in competition” value is “>>>>”.

“porcine vasoactive intestinal peptide (VIP): porcine vasoactive intestinal peptide”: the “rank order of potency in competition” value in test [1] was “>>>>”. The same measure, in the same setting: as for “salmon calcitonin (8-32): salmon calcitonin fragment (8-32) (VLGKLSQELHKLQTYPRTNTGSGTP; ends and bridges not checked)”, the entry is “>>>>”.
